US5932425A, “Compositions and methods for modulating cellular NF-κB activation” (Signal Pharmaceuticals, Inc., priority 1997, dated 1999)
Blank lines part the entries; values can stand above or below the molecule they belong to. Non-standard residues stand in square brackets, D forms with d. No end group written: not given here. pS = N[C@@H](COP(=O)(O)O)C(=O)O

Key:
[1] = molecular target: pIκBα ubiquitination (E3 ubiquitin ligase); test: In vitro ubiquitination assay of phosphorylated, NF-κB complex-associated IκBα; type: biochemical, human; conditions: complex-associated 35S-pIκBα, HeLa extract, Bestatin 40 μg/ml; read-out: IC50 of inhibition of the pIκBα ubiquitin conjugation reaction
Experimental: Following incubation, 1 μl of anti-p65 serum was added, and the NF-κB immune complex was immobilized to Protein A-Sepharose® and subjected to in vitro ubiquitination in HeLa cell extract as described by Alkalay et al. Ubiquitinated proteins were separated by SDS-PAGE and visualized by autoradiography.
To identify the IκBα-ubiquitin ligase recognition motif, various peptides were added at varying concentrations to the reaction mixtures in the presence of the peptidase inhibitor Bestatin (40 μg/ml). The peptides spanned the N-terminal signaling domain of the protein, and were phosphorylated at one or both serine residues (32 and 36), or were unmodified or serine-substituted. These peptides were included in the ubiquitination reaction at different concentrations and tested for inhibition of pIκBα specific ubiquitination. When conjugation of free IκBα was monitored, the translated protein was added directly to the conjugation reaction mixture.

[2] = tested on: E-selectin expression in HUVEC; test: Microinjection into HUVEC, TNFα activation, E-selectin staining; type: cell-based, human; conditions: 5 mg/ml microinjected, TNFα 3 hours
Source text: Primary human vascular endothelial cells (HUVEC) respond to TNFα stimulation by surface expression of NF-κB regulated adhesion proteins such as ICAM-1, V-CAM-1 and E-selectin (Read et al., Immunity 2:493,1995; Chen et al., J. Immunol 155:3538, 1995). E-selectin expression is particularly NF-κB dependent and is the major inducible endothelial adhesion molecule for initial neutrophil attachment and rolling on activated endothelium. Stimulated cells may be fixed and stained to detect expression of one or more NF-κB regulated adhesion proteins.
HeLa cells were plated on a grid coverslips (Cellocate, Eppendorf) 18 hours before microinjection. Microinjection was performed with a 22 amino acid pIκBα peptide (pp21; Table I and SEQ ID NO:9) or a control phospho-Fos peptide (SEQ ID NO:10) using a semi-automated apparatus (Eppendorf). Peptides were injected into the cell cytoplasm at a concentration of 5 mg/ml in 100 mM KCl, 5 mM Na2 HPO4 (pH 7.2), and immediately activated with TNFα (200 units/mL) for either 20 minutes (for NF-κB translocation) or 3 hours (for E-selectin expression). Following activation, the cells were fixed and stained with p65 specific antibodies (Mercurio et al., Genes & Dev. 7:705, 1993; Santa Cruz) or monoclonal anti-E-selectin antibodies (R&D Systems). […]

[3] = tested on: NF-κB nuclear translocation in HeLa cells; test: Microinjection into HeLa cells, TNFα activation, p65 nuclear staining; type: cell-based, human; conditions: 5 mg/ml microinjected, TNFα 200 units/mL for 20 minutes
Experimental: Following microinjection, cells are stimulated (e.g., with TNFα) and incubated to allow NF-κB activation. In HeLa cells, TNFα induces rapid nuclear translocation of NF-κB into the nucleus, which may be detected by staining with p65-specific antibodies. Modulating agents induce a statistically significant decrease in NF-κB translocation, and may reduce such translocation to undetectable levels.
HeLa cells were plated on a grid coverslips (Cellocate, Eppendorf) 18 hours before microinjection. Microinjection was performed with a 22 amino acid pIκBα peptide (pp21; Table I and SEQ ID NO:9) or a control phospho-Fos peptide (SEQ ID NO:10) using a semi-automated apparatus (Eppendorf). Peptides were injected into the cell cytoplasm at a concentration of 5 mg/ml in 100 mM KCl, 5 mM Na2 HPO4 (pH 7.2), and immediately activated with TNFα (200 units/mL) for either 20 minutes (for NF-κB translocation) or 3 hours (for E-selectin expression). Following activation, the cells were fixed and stained with p65 specific antibodies (Mercurio et al., Genes & Dev. 7:705, 1993; Santa Cruz) or monoclonal anti-E-selectin antibodies (R&D Systems).

[4] = molecular target: specific E3 ubiquitin ligase that recognises phosphorylated IκB

Molecule: CDS*GLDS*M (CD[pS]GLD[pS]M) [pp7]
- IC50 [1]: 10 µM

Molecule: CKKERLLDDRHDS*GLDS*MKDEE (CKKERLLDDRHD[pS]GLD[pS]MKDEE) [pp21]
- microinjected cells with inhibition of E-selectin expression [2]: 70%-80%
- microinjected cells in which TNFα-stimulated NF-κB activation was abolished [3]: 50%-70%

Molecule: CDDRHD[pS]GLD[pS]M [doubly phosphorylated IκBα peptide pp11]
- IC50 of inhibition of the pIκB conjugation reaction [4]: 5 µM

Molecule: CERLLDDRHD[pS]GLD[pS]MKDEE [doubly phosphorylated IκBα peptide pp19]
- IC50 of inhibition of the pIκB conjugation reaction [4]: 5 µM

Molecule: CD[pS]GLD[pS]M [doubly phosphorylated IκBα peptide pp7]
- IC50 of inhibition of pIκBα ubiquitination [4]: 10 µM

Molecule: CDDRHD[pS]GLD[pS]MKDEE [doubly phosphorylated IκBα peptide pp15]
- IC50 of inhibition of the pIκB conjugation reaction [4]: 5 µM

Other lines, results leading:

- IC50 of inhibition of the pIκBα conjugation [4]: 400 µM
Molecule: CKKERLLDDRHDSGLD[pS]MKDEE [singly phosphorylated IκBα peptide ppS36]

- IC50 of inhibition of the pIκB conjugation reaction [4]: 5 µM
Molecule: CKKERLLDDRHD[pS]GLD[pS]MKDEE [doubly phosphorylated IκBα peptide pp21]

- IC50 of inhibition of the pIκBα conjugation [4]: 400 µM
Molecule: CKKERLLDDRHD[pS]GLDSMKDEE [singly phosphorylated IκBα peptide ppS32]
